Results published in publication doi:10.1101/2025.07.10.664194 (bioRxiv, 2025).

Target: T1, BcGabija GajA (Bacillus cereus, UniProt J8H9C1 1-578)
T1 construct: also called Bacillus cereus GajA nuclease subunit
T1 sequence: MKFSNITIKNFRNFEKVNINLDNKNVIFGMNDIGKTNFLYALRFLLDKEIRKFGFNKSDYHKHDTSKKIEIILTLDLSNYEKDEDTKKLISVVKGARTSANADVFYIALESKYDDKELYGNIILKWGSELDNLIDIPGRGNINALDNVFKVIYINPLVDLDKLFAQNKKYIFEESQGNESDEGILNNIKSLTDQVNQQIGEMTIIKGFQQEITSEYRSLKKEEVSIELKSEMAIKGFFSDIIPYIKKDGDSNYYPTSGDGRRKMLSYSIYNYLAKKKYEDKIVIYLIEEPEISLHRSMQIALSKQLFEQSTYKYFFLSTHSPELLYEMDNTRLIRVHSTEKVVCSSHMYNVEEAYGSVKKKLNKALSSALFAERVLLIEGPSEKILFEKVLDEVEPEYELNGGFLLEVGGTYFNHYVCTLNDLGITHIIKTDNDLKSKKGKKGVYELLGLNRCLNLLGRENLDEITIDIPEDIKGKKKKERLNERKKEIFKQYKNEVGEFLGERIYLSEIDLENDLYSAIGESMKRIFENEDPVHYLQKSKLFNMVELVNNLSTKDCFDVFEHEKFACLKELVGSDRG
Assay: mass photometry
Details: both partners purified

B1: BcGabija GajB (natural protein)
chain: MSREQIIKDGGNILVTAGAGSGKTTILVSKIEADLKENKTHYSIAAVTFTNKAAKEIEGRLGYSSRGNFIGTNDGFVESEIIRPFIKDAFGNDYPDNFTAEYFDNQFASYDKGLQVLKYQNILGTYSNPKKNFKFQLALDILKKSLVARQYIFSKYFKIFIDEYQDSDKDMHNLFMYLKDQLKIKLFIVGDPKQSIYIWRGAEPENFNGLIENSTDFNKYHLTSNFRCCQDIQNYSNLFNEETRSLIKEKNEVQNVISIADDMPISDILLKLTEEKQVLNIEAELVILVRRRNQAIEIMKELNEEGFNFIFIPQTPLDRATPNATLLKEVIKYVKNDRYSIYDLAAEIVGNLSSREIKEIQKIINELLVPNINQVLINQVLINLFAKLEITLDTREITAFTEVMMTNEFDIAFDTNEYLHKIFTVHSAKGLEFNQVIITASDYNVHYNRDTNEHYVATTRAKDKLIVIMDNKKYSDYIETLMKELKIKNIIKSI
notes: also called NTPase subunit of BcGabija
stoichiometry N: 1 GajA:GajB (4:4)
